Sequences and labels used below:
B1: TATA-box-binding protein (Homo sapiens), P20226 (parent)
chain: MDQNNSLPPYAQGLASPQGAMTPGIPIFSPMMPYGTGLTPQPIQNTNSLSILEEQQRQQQQQQQQQQQQQQQQQQQQQQQQQQQQQQQQQQQQQQAVAAAAVQQSTSQQATQGTSGQAPQLFHSQTLTTAPLPGTTPLYPSPMTPMTPITPATPASESSGIVPQLQNIVSTVNLGCKLDLKTIALRARNAEYNPKRFAAVIMRIREPRTTALIFSSGKMVCTGAKSEEQSRLAARKYARVVQKLGFPAKFLDFKIQNMVGSCDVKFPIRLEGLVLTHQQFSSYEPELFPGLIYRMIKPRIVLLIFVSGKVVLTGAKVRAEIYEAFENIYPILKGFRKTT
partner: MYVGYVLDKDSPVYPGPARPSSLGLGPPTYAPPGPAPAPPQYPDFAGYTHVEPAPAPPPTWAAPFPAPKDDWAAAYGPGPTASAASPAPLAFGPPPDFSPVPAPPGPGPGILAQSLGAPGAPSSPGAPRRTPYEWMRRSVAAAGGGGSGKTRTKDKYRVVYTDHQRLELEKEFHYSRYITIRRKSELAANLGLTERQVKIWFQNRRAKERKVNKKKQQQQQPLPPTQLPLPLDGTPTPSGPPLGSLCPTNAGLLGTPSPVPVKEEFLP

Variants of B1 are the subject of this assay. As to conditions: with cdx1_mouse Cdx1, P18111.
Consider I292F;V301T;L303V, for which the “effect of a mutation on the interaction” value was “with no effect”.

Source of the values: IntAct's records for PubMed 17158164.
